Reference: patent publication US20160230173A1

Target: T1, Wild-type glucocorticoid receptor, Myc-DDK tagged NR3C1 (Origene catalog # RC220189), substrate of the CASP1 enzymatic assay
T1 chain: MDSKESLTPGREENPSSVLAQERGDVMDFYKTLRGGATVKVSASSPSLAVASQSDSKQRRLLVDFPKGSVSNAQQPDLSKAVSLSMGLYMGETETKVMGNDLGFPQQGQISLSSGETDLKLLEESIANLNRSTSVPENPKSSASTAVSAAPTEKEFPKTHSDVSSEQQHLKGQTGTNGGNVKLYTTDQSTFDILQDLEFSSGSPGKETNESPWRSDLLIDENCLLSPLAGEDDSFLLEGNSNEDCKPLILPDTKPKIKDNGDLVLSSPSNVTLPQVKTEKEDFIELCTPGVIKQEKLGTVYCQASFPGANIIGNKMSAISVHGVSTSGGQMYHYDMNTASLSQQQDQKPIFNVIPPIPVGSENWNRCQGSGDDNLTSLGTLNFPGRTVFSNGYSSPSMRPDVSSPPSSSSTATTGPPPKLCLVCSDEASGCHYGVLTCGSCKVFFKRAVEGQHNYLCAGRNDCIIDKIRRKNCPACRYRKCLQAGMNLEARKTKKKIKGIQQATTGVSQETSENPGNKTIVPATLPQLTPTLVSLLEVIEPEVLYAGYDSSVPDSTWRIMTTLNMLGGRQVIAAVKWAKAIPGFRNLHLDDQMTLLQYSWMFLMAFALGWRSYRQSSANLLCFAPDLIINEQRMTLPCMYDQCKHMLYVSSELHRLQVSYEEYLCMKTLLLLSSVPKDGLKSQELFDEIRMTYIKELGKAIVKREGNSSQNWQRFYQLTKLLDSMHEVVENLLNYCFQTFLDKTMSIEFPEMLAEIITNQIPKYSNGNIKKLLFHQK

B1: Recombinant human CASP1 (Enzo Life Sciences CASP1 assay kit for drug discovery, catalog number BML-AK701-0001) (protein)
chain: NPAMPTSSGSEGNVKLCSLEEAQRIWKQKSAEIYPIMDKSSRTRLALIICNEEFDSIPRRTGAEVDITGMTMLLQNLGYSVDVKKNLTASDMTTELEAFAHRPEHKTSDSTFLVFMSHGIREGICGKKHSEQVPDILQLNAIFNMLNTKNCPSLKDKPKVIIIQACRGDSPGVVWFKDSVGVSGNLSLPTTEEFEDDAIKKAHIEKDFIAFCSSTPDNVSWRHPTMGSVFIGRLIEHMQEYACSCDVEEIFRKVRFSFEQPDGRAQMPTTERVTLTRCFYLFPGH
  cleavage of GR in CASP1 enzymatic assay (western blot): enzymatic assays were performed that revealed glucocorticoid receptor (NR3C1) cleavage by recombinant CASP1
